Literature values, collected in article PMC5057102.

Target: Amyloid beta oligomers (1-40/1-42, form not specified) (UniProt P05067)
Test: not stated (cited)
Settings: 5'-HS (thiol); 0.1 M phosphate buffer (Na2HPO4/NaH2PO4) pH 7.4; incubations at 37 C (Abeta 60 min, aptamer-Au-Th 3 h); 1% BSA block

Sequence of Amyloid beta oligomers (1-40/1-42, form not specified) (P05067 672-711): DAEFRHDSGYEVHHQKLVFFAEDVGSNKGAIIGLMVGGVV

For “GCCTGTGTTGGGGCGGGTGCG [Abeta oligomer aptamer (thiolated, on AuNP with thionine)]”, which Kd is on record?
Its Kd is 25 nM.
